How the values were obtained:
[1] = target: T1, human FGFR1c ligand-binding domain (human, UniProt P11362 142-365); assay: Fab-phage ELISA, immobilised antigen
T1 construct: range 142-365; also called FGFR1c alone
T1 sequence (looked up): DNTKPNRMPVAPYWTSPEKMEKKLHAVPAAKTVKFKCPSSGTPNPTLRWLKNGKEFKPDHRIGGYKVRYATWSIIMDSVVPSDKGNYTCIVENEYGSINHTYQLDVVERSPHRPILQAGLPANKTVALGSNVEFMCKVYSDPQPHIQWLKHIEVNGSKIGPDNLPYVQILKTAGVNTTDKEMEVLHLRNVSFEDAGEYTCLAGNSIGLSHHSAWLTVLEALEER

[2] = target: T2, extracellular domain (ECD) of human αKlotho, amino acids E34-S981 with C-terminal 6-His tag (R&D Systems … (human, UniProt Q9UEF7 34-981)); assay: SPR, Fab captured by anti-H+L antibody, αKlotho injected
T2 construct: range 34-981; also called αKlotho (aa34-981); target antigen
T2 sequence: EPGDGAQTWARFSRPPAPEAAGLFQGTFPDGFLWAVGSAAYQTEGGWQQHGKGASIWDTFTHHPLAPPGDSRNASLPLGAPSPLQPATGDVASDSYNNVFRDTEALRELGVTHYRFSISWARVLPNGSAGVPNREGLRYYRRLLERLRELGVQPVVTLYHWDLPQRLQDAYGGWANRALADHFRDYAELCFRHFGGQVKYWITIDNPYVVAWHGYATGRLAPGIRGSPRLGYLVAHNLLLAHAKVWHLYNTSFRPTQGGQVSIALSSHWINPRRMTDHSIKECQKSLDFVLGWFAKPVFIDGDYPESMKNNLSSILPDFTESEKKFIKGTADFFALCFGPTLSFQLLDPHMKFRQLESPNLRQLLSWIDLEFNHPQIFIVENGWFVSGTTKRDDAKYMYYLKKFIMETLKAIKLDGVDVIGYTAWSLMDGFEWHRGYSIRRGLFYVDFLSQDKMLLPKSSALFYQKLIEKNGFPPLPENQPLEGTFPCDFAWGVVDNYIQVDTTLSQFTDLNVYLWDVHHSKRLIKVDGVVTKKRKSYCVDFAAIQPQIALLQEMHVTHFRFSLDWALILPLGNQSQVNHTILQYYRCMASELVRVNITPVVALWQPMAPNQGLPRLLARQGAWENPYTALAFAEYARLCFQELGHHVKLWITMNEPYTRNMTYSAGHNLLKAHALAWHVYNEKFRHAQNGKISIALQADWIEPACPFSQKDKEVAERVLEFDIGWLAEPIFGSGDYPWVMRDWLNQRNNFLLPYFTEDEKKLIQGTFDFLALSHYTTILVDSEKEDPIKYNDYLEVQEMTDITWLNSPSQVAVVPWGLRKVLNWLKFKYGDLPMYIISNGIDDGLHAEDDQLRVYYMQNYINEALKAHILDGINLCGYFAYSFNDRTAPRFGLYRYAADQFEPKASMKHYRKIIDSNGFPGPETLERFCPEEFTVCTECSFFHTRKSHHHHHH
Description: Affinity estimates for each of the antibodies were determined by surface plasmon resonance (SPR). Fabs were immobilized using an anti-H+L antibody and serial dilutions of αKlotho were injected.

mouse αKlotho = target: T3, mouse αKlotho (mouse, UniProt O35082 35-982); assay: SPR (ProteOn XPR36), Fab captured by anti-IgG(H+L), mouse αKlotho injected in serial dilutions, Langmuir fit [continued) C.]
T3 construct: also called Mu aKL
T3 sequence (looked up): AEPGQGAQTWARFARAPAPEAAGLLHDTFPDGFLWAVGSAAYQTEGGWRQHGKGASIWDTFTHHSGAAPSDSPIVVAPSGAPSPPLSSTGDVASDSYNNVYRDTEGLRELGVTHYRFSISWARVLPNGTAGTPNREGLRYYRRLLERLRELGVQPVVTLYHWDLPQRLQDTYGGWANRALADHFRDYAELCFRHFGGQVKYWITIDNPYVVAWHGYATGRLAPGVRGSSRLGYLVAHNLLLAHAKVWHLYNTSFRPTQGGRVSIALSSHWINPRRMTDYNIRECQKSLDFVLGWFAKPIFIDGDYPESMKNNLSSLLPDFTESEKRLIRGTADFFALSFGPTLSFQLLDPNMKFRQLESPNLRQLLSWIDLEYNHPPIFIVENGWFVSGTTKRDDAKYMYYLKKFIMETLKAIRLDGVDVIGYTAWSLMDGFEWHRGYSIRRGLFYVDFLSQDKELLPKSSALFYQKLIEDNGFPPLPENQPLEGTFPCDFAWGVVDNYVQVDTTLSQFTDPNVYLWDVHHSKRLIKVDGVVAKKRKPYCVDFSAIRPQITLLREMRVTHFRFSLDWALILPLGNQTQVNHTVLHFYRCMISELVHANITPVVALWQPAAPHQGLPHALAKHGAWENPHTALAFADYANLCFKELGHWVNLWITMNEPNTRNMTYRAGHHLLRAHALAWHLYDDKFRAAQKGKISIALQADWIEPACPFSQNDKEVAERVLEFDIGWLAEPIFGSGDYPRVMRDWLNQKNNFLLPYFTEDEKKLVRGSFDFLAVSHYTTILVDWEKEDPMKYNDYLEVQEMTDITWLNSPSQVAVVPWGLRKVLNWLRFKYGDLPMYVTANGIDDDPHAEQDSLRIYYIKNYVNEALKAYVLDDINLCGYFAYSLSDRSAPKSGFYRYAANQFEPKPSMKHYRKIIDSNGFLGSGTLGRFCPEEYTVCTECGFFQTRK
Description: Estimated affinities against human and mouse antigen for select αKlotho Fabs were obtained by surface plasmon resonance on a ProteOn XPR36 (FIG. 17). Fabs were captured using an anti-IgG(H+L) antibody and serial dilutions of αKlotho were injected. Binding curves were fitted to the Langmuir model. (A) Determined Kon, Koff and KD values. (B) and (C) Binding curves for human and mouse antigen respectively.

binding result [1]: no binding
Kd [2]: 1.9 nM
Kd (mouse αKlotho): 0.784 nM
koff (mouse αKlotho): 0.000159 s⁻¹
kon (mouse αKlotho): 202000 M⁻¹ s⁻¹
B1: sb106 Fab (Fab, V domains shown)
VH: EVQLVESGGGLVQPGGSLRLSCAASGFNISYYSIHWVRQAPGKGLEWVAYISPSYGYTSYADSVKGRFTISADTSKNTAYLQMNSLRAEDTAVYYCARYYVYASHGWAGYGMDYWGQGTLVTVSS
VL: DIQMTQSPSSLSASVGDRVTITCRASQSVSSAVAWYQQKPGKAPKLLIYSASSLYSGVPSRFSGSRSGTDFTLTISSLQPEDFATYYCQQAGYSPITFGQGTKVEIKR
notes: also called Fsb106; clone 48
